Source: patent US20200362021A1 (PHANES THERAPEUTICS, published 2020)
No end group written: not given here. *: point of attachment. Biotin = O=C1N[C@H]2[C@H](CS[C@H]2CCCCC(=O)*)N1

T1: pyr-apelin-13-biotin (pE-RPRLSHKGPMPF-biotin) (N-terminal pyroglutamate (pE); C-terminal biotin)
T1 construct: also called pyrAPL13-Biotin
T1 peptide: ERPRLSHKGPMPF

T2: Biotin-APL17
T2 peptide: Biotin-KFRRQRPRLSHKGPMPF


Experiments:
[1] = molecular target: T3, biotin-apelin-13 (biotin-…) (N-terminal biotin); test: SPR (Biacore), biotin-apelin-13 on streptavidin CM5 chip, mAb at 12.5-100 nM
T3 construct: also called Biotin-APL13
Procedure: Anti-apelin mAbs at four different concentrations (12.5 nM, 25 nM, 50 nM and 100 nM) were captured on the chip surface. The on- and off-rate for antibody-antigen binding were measured, curve fitted and calculated.

[2] = molecular target: T1, pyr-apelin-13-biotin …; test: ELISA, peptide on neutravidin plate, mAb 200 ng/ml, A405
Procedure: (§1) FIGS. 1A-1C show binding of anti-apelin mAbs to various biotinylated apelin peptides measured by ELISA. Biotinylated apelin peptides were immobilized on ELISA plates coated with neutravidin and purified recombinant rabbit anti-apelin mAbs were added for binding to the peptides on the plates. The binding was detected by adding a goat anti-rabbit IgG Fc-conjugated to alkaline phosphatase and PNPP substrate, and measured as the absorbance at 405 nm.
(§2) For the binding assay, neutravidin in carbonate coating buffer was coated on high binding ELISA plates at 1 μg/ml overnight. Peptides were added at 4 μg/ml after the plates were blocked with 1% BSA in TBS. After incubation of the plates at room temperature for 60 minutes, the plates were washed and then purified recombinant rabbit antibodies were added at 200 ng/ml. Following rabbit antibody binding to the peptides on the plates at room temperature for 90 minutes, goat anti-rabbit IgG Fc-conjugated to alkaline phosphatase was added, and antibody-antigen binding was detected by adding PNPP substrate and reading absorbance of ELISA plates at 405 nm. Each mAb was assayed in duplicate.

Biotin-APL17 = molecular target: T2, Biotin-APL17; test: as above
Procedure: as §1, §2

Kd [1] [nM]	binding result [2]	binding result (Biotin-APL17)	Binder
51.3	no binding (tested: 200 ng/ml)		anti-apelin mAb C5 (antibody, V domains shown, recombinant rabbit IgG made in HEK293 cells) VH: QSVEESGGRLVTPGTPLTLTCTVSGFSLSGAWMNWVRQAPGKGLEWIGVVSSDDNIYYADWAKGRFTISKTSTTVDLKLTSPTTEDTATYFCARNLGTIWGPGTLVTVSS VL: QVLTQTESPVSAAVGGTVTINCQSSQSVWSNYLSWFQQKPGQPPKVLIYGTSKLPSGVPSRFSGSGSGTEFTLTINDLECDDAATYYCAGGYSGHIYSFGGGTEVVVK
1.06	no binding (tested: 200 ng/ml)		anti-apelin mAb C17 (antibody, V domains shown, recombinant rabbit IgG made in HEK293 cells) VH: QSVEESGGRLVKPDETLTLTCAVSGIDLSSNAMNWVRQAPGEGLEWIGSMYTDGTTYYANWAKGRFTISRASSTTVDLKMTSLTAADTATYFCARGDIWGPGTLVTVSS VL: QVLTQTASPVSAAVGGTVTISCQSSQSVYNNNWLAWFQQKPGQPPKRLIYGTSELASGVPSRFKGSGSGTQFTLTISGVQCDDAATYYCLGTYSSNIHVFGGGTEVVVK
0.119	no binding (tested: 200 ng/ml)		anti-apelin mAb C26 (antibody, V domains shown, recombinant rabbit IgG made in HEK293 cells) VH: QEQLEESGGGLVQPEGSLTLTCTASGFTLSNYWMSWVRQAPGKGLVWIGCIDIGSDDTYYASWAKGRFTISRTSSTTVTLQVTSLTAADTATYFCARSGGLWGPGTLVTVSS VL: QVLTQTPSSTSAAVGGTVTINCQASQSVYNNNDLAWYQQKPGQPPKRLIYEASKLASGVPSRFSGSGSGTQFTLTISDLECDDAATYYCAGGWSGNFYVFGGGTEVVVK
0.589	no binding (tested: 200 ng/ml)	binds	anti-apelin mAb C27 (antibody, V domains shown, recombinant rabbit IgG made in HEK293 cells) VH: QSVEESGGRLVTPGGSLTLTCTVSGIDLINAWMNWVRQAPGKGLEWIGTTTDDDTIYYANWAKGRFTISRTSTTVDLKVTSLTSEDTATYFCSKGRIWGPGTLVTVSL VL: QVLTQTPASVSAAVGGTVTINCQASQSVYDGNWLCWYQQKPGQPPKRLIYKASTLESGVPSRFKGSGSGTQFTLTISDLECDDAATYYCQGGFTSNIYPFAGGTEVVVK
